# Experimental data reported in patent publication US10494415B2, “Insulin-like growth factor 2 (IGF2) binding agents” (Cancer Research Technology Limited, priority 2015, dated 2019).
# Biological target: IGF2 (Homo sapiens, UniProt P01344)
# Assay: SPR (Biacore T200) of recombinant IGF2R domain 11 mutants on immobilised biotinylated IGF2
# Type: binding
# Parameters: purchased GroPep
# Source text: Surface plasmon resonance (SPR) binding analysis of recombinant M6P/IGF2R domain 11 mutants interaction with IGF2. Kon indicates association (on) rate; koff, dissociation (off) rate; RU, response units. Binding to IGF2 assessed with BIAcore T200 using purified biotinylated IGF2 and IGF1 on a streptavidin biosensor chip. Recombinant proteins were expressed either in E. coli and/or P. pastoris. All the mutants in the FG and CD loops are on the domain 11^AB5 background for the AB loop unless otherwise stated. All experiments were carried out at 25° C. in HBS-EP buffer (pH 7.4), were repeated 2-5 times on two independent BIAcore chips. nd=not determined. Data for KD expressed as mean of each experiment, and means of kon and koff are shown.
# Measurements were carried out at 25° C. in HBS-EP buffer (pH 7.4) (nd=not determined, np=no protein). Data for KD expressed as mean of each experiment, and means of kon and koff are shown.
# Measurements were carried out at 25° C. in MES-EP buffer, 20 mM MES pH 6.5, 150 mM NaCl, 3 mM EDTA, and 0.005% (v/v) surfactant P20). Data for KD expressed as mean of each experiment, and means of kon and koff are shown.
# Final kinetic analysis of mutants by SPR was conducted using a Biacore T200 biosensor at 25° C. in either HBS-EP (10 mM HEPES pH 7.4, 150 mM NaCl, 3 mM EDTA, and 0.005% (v/v) surfactant P20) or MES-EP (20 mM MES pH 6.5, 150 mM NaCl, 3 mM EDTA, and 0.005% (v/v) surfactant P20) at a flow-rate of 40 μL min^−1. […] For the analysis of the Fc-domain 11^AB5 interaction, approximately 50 RU of a biotinylated IGF2:biotinylated ubiquitin mixture (1:8 proportion) was immobilized on the CM5-streptavidin chip. This interaction was also analysed by immobilizing the Fc-domain 11^AB5 and Fc-domain 11^AB5-RHH (or Fc-domain 11^I1572A as control) by Human Antibody Capture (monoclonal mouse anti-human IgG antibody immobilised on a CM5 chip by amine coupling, GE Healthcare) with and without human IgG1 Fc fragment (Bethyl Laboratories, UK) in the control flow cell. Increasing concentrations of IGF2^1-67, proIGF2^1-104, proIGF2^1-156 and IGF1 ranging from 0.125 to 32 nM were injected. T200 BiaEvaluation software (GE Healthcare) was used to fit the resulting curves according to a 1:1 binding model. Steady state affinities were determined using the kinetic data, taking the response average at 5 seconds before injection end and for 5 seconds average. Thermodynamic data was performed across the temperature range of 10° C. to 30° C., van't Hoff and Erying plots generated and ΔH, −TΔS and ΔG values determined as previously described.
# IGF2, sequence (P01344 25-91): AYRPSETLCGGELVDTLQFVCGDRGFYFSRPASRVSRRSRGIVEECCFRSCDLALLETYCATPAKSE
Kinetics koff (Table 2),Kinetics kon (Table 2),"Kinetics koff (Table 3, 25° C., HBS-EP pH 7.4)","Kinetics kon (Table 3, 25° C., HBS-EP pH 7.4)","Kinetics koff (Table 4, MES-EP pH 6.5)","Kinetics kon (Table 4, MES-EP pH 6.5)",Molecule
0.013 s⁻¹,1.06e+07 M⁻¹ s⁻¹,0.013 s⁻¹,1.06e+07 M⁻¹ s⁻¹,,,AB3 P1597H: domain 11 AB3 + FG loop P1597H (protein) MKSNEHDDCQVTNPSTGHLFDLSSLSGRAGFTAAYSKSGVVYMSICGENENCPPGVGACFGQTRISVGKANKRLRYVDQVLQLVYKDGSHCPSKSGLSYKSVISFVCRPEAGPTNRPMLISLDKQTCTLFFSWHTPLACEQATECSV
,,0.0070 s⁻¹,3.68e+06 M⁻¹ s⁻¹,,,AB5 P1597H: domain 11 AB5 + P1597H (protein) MKSNEHDDCQVTNPSTGHLFDLSSLSGRAGFTAAYAKGWGVYMSICGENENCPPGVGACFGQTRISVGKANKRLRYVDQVLQLVYKDGSHCPSKSGLSYKSVISFVCRPEAGPTNRPMLISLDKQTCTLFFSWHTPLACEQATECSV
,,0.3478 s⁻¹,1.97e+07 M⁻¹ s⁻¹,,,"AB3 P1597H K1631W: domain 11 AB3 + P1597H, K1631W (protein) MKSNEHDDCQVTNPSTGHLFDLSSLSGRAGFTAAYSKSGVVYMSICGENENCPPGVGACFGQTRISVGKANKRLRYVDQVLQLVYKDGSHCPSKSGLSYKSVISFVCRPEAGPTNRPMLISLDWQTCTLFFSWHTPLACEQATECSV"
,,0.012 s⁻¹,,,,AB3 P1597H HI^23D: domain 11 AB3 + P1597H + HI loop of clone 23D (HFQS) (protein) MKSNEHDDCQVTNPSTGHLFDLSSLSGRAGFTAAYSKSGVVYMSICGENENCPPGVGACFGQTRISVGKANKRLRYVDQVLQLVYKDGSHCPSKSGLSYKSVISFVCRPEAGPTNRPMLISLHFQSCTLFFSWHTPLACEQATECSV
,,0.0171 s⁻¹,2.08e+07 M⁻¹ s⁻¹,,,"AB3 Q1569R P1597K S1602H G1603K: domain 11 AB3 + Q1569R, P1597K, S1602H, G1603K (protein) MKSNEHDDCQVTNPSTGHLFDLSSLSGRAGFTAAYSKSGVVYMSICGENENCPPGVGACFGRTRISVGKANKRLRYVDQVLQLVYKDGSKCPSKHKLSYKSVISFVCRPEAGPTNRPMLISLDKQTCTLFFSWHTPLACEQATECSV"
0.031 s⁻¹,1.36e+07 M⁻¹ s⁻¹,0.031 s⁻¹,1.36e+07 M⁻¹ s⁻¹,,,AB3 Q1569R: domain 11 AB3 + CD loop Q1569R (protein) MKSNEHDDCQVTNPSTGHLFDLSSLSGRAGFTAAYSKSGVVYMSICGENENCPPGVGACFGRTRISVGKANKRLRYVDQVLQLVYKDGSPCPSKSGLSYKSVISFVCRPEAGPTNRPMLISLDKQTCTLFFSWHTPLACEQATECSV
,,0.0241 s⁻¹,2e+07 M⁻¹ s⁻¹,,,"AB3 Q1569R P1597K: domain 11 AB3 + Q1569R, P1597K (protein) MKSNEHDDCQVTNPSTGHLFDLSSLSGRAGFTAAYSKSGVVYMSICGENENCPPGVGACFGRTRISVGKANKRLRYVDQVLQLVYKDGSKCPSKSGLSYKSVISFVCRPEAGPTNRPMLISLDKQTCTLFFSWHTPLACEQATECSV"
,,0.0287 s⁻¹,1.05e+07 M⁻¹ s⁻¹,,,AB3 P1597K: domain 11 AB3 + FG loop P1597K (protein) MKSNEHDDCQVTNPSTGHLFDLSSLSGRAGFTAAYSKSGVVYMSICGENENCPPGVGACFGQTRISVGKANKRLRYVDQVLQLVYKDGSKCPSKSGLSYKSVISFVCRPEAGPTNRPMLISLDKQTCTLFFSWHTPLACEQATECSV
,,0.0120 s⁻¹,9.54e+06 M⁻¹ s⁻¹,,,AB5 P1597K: domain 11 AB5 + P1597K (protein) MKSNEHDDCQVTNPSTGHLFDLSSLSGRAGFTAAYAKGWGVYMSICGENENCPPGVGACFGQTRISVGKANKRLRYVDQVLQLVYKDGSKCPSKSGLSYKSVISFVCRPEAGPTNRPMLISLDKQTCTLFFSWHTPLACEQATECSV
,,0.0153 s⁻¹,1.89e+07 M⁻¹ s⁻¹,0.0091 s⁻¹,1.99e+07 M⁻¹ s⁻¹,"AB3 Q1569R P1597H: domain 11 AB3 + Q1569R, P1597H (protein) MKSNEHDDCQVTNPSTGHLFDLSSLSGRAGFTAAYSKSGVVYMSICGENENCPPGVGACFGRTRISVGKANKRLRYVDQVLQLVYKDGSHCPSKSGLSYKSVISFVCRPEAGPTNRPMLISLDKQTCTLFFSWHTPLACEQATECSV"
,,0.0175 s⁻¹,8.04e+06 M⁻¹ s⁻¹,,,AB5 Q1569R: domain 11 AB5 + CD loop Q1569R (protein) MKSNEHDDCQVTNPSTGHLFDLSSLSGRAGFTAAYAKGWGVYMSICGENENCPPGVGACFGRTRISVGKANKRLRYVDQVLQLVYKDGSPCPSKSGLSYKSVISFVCRPEAGPTNRPMLISLDKQTCTLFFSWHTPLACEQATECSV
,,0.010 s⁻¹,1.41e+07 M⁻¹ s⁻¹,0.0064 s⁻¹,1.61e+07 M⁻¹ s⁻¹,"AB3 Q1569R P1597H S1602H: domain 11 AB3 + Q1569R, P1597H, S1602H (protein) MKSNEHDDCQVTNPSTGHLFDLSSLSGRAGFTAAYSKSGVVYMSICGENENCPPGVGACFGRTRISVGKANKRLRYVDQVLQLVYKDGSHCPSKHGLSYKSVISFVCRPEAGPTNRPMLISLDKQTCTLFFSWHTPLACEQATECSV"
,,0.0174 s⁻¹,1.9e+06 M⁻¹ s⁻¹,,,AB5 P1597A: domain 11 AB5 + P1597A (protein) MKSNEHDDCQVTNPSTGHLFDLSSLSGRAGFTAAYAKGWGVYMSICGENENCPPGVGACFGQTRISVGKANKRLRYVDQVLQLVYKDGSACPSKSGLSYKSVISFVCRPEAGPTNRPMLISLDKQTCTLFFSWHTPLACEQATECSV
,,0.016 s⁻¹,2.01e+07 M⁻¹ s⁻¹,,,"AB3 Q1569R P1597K S1602H: domain 11 AB3 + Q1569R, P1597K, S1602H (protein) MKSNEHDDCQVTNPSTGHLFDLSSLSGRAGFTAAYSKSGVVYMSICGENENCPPGVGACFGRTRISVGKANKRLRYVDQVLQLVYKDGSKCPSKHGLSYKSVISFVCRPEAGPTNRPMLISLDKQTCTLFFSWHTPLACEQATECSV"
,,0.0102 s⁻¹,2.74e+06 M⁻¹ s⁻¹,,,"AB3 P1597K S1602H: domain 11 AB3 + P1597K, S1602H (protein) MKSNEHDDCQVTNPSTGHLFDLSSLSGRAGFTAAYSKSGVVYMSICGENENCPPGVGACFGQTRISVGKANKRLRYVDQVLQLVYKDGSKCPSKHGLSYKSVISFVCRPEAGPTNRPMLISLDKQTCTLFFSWHTPLACEQATECSV"
